Read-outs that look alike come from different tables or passages of the source.
Experiments:
[1] = target: T1, human small heat shock protein HspB8, wild type (human), Q9UJY1; assay: SEC-SAXS; online SEC-SAXS, SWING beamline; Shodex KW404-4F; 20 mM HEPES, 150 mM NaCl, pH 7.4, 2.5 mM DTT; 5 mg/mL (230 uM) sample applied; mass from the volume of correlation; conditions: remark: other sources report otherwise
T1 chain: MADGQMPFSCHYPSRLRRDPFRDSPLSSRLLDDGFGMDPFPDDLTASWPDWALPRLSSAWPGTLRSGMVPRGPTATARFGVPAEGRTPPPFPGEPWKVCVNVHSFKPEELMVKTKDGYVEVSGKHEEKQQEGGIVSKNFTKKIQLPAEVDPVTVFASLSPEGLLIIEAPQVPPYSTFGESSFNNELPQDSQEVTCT

[2] = target: T1, human small heat shock protein HspB8, …; assay: SEC; Superdex 200 HR 10/30; 20 mM Tris/acetate pH 7.6, 150 mM NaCl, 0.1 mM EDTA, 0.1 mM PMSF, 15 mM beta-mercaptoethanol; 10-120 ug protein in 100 uL loaded; apparent mass from calibration, estimated number of subunits; conditions: remark: other sources report otherwise
[3] = target: the molecule itself; assay: as above
[4] = target: the molecule itself; assay: as above; remark: listed apart in the source
[5] = target: T2, human small heat shock protein HspB6, wild type (human), O14558; assay: as above; conditions: remark: other sources report otherwise
T2 chain: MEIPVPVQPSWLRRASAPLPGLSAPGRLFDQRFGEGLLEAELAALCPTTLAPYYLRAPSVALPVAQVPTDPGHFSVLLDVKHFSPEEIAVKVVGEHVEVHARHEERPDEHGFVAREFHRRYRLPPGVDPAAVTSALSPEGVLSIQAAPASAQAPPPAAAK

B1: human small heat shock protein HspB8, wild type, Q9UJY1 1-196 (natural protein)
chain: MADGQMPFSCHYPSRLRRDPFRDSPLSSRLLDDGFGMDPFPDDLTASWPDWALPRLSSAWPGTLRSGMVPRGPTATARFGVPAEGRTPPPFPGEPWKVCVNVHSFKPEELMVKTKDGYVEVSGKHEEKQQEGGIVSKNFTKKIQLPAEVDPVTVFASLSPEGLLIIEAPQVPPYSTFGESSFNNELPQDSQEVTCT
- stoichiometry N [1]: 2 monomers
- stoichiometry N [2]: 2 monomers

B2: R29A mutant of human HspB8 (natural protein, UniProt Q9UJY1 1-196, looked up)
chain: MADGQMPFSCHYPSRLRRDPFRDSPLSSALLDDGFGMDPFPDDLTASWPDWALPRLSSAWPGTLRSGMVPRGPTATARFGVPAEGRTPPPFPGEPWKVCVNVHSFKPEELMVKTKDGYVEVSGKHEEKQQEGGIVSKNFTKKIQLPAEVDPVTVFASLSPEGLLIIEAPQVPPYSTFGESSFNNELPQDSQEVTCT
notes: HspB8, human; UniProt Q9UJY1; Arg29 of the RLFDQxFG motif replaced by Ala; Expressed from pET23b; also called R29A HspB8; source: E. coli BL21(DE3)pLysS, purified (ammonium sulfate fractionation, HiTrap Phenyl Sepharose, Superdex-200 SEC)
- stoichiometry N [3]: 4 monomers
- stoichiometry N [4]: ~3 monomers

B3: human small heat shock protein HspB6, wild type, O14558 1-160 (natural protein)
chain: MEIPVPVQPSWLRRASAPLPGLSAPGRLFDQRFGEGLLEAELAALCPTTLAPYYLRAPSVALPVAQVPTDPGHFSVLLDVKHFSPEEIAVKVVGEHVEVHARHEERPDEHGFVAREFHRRYRLPPGVDPAAVTSALSPEGVLSIQAAPASAQAPPPAAAK
- stoichiometry N [5]: 3 monomers

B4: R27A mutant of human HspB6 (natural protein, UniProt O14558 1-160, looked up)
chain: MEIPVPVQPSWLRRASAPLPGLSAPGALFDQRFGEGLLEAELAALCPTTLAPYYLRAPSVALPVAQVPTDPGHFSVLLDVKHFSPEEIAVKVVGEHVEVHARHEERPDEHGFVAREFHRRYRLPPGVDPAAVTSALSPEGVLSIQAAPASAQAPPPAAAK
notes: HspB6, human; UniProt O14558; Arg27 of the RLFDQxFG motif replaced by Ala; Expressed from pET23b; also called R27A HspB6; R27A mutant of HspB6
- stoichiometry N [4]: ~3 monomers

B5: R21A mutant of human HspB4 (natural protein, UniProt P02489 1-173, looked up)
chain: MDVTIQHPWFKRTLGPFYPSALFDQFFGEGLFEYDLLPFLSSTISPYYRQSLFRTVLDSGISEVRSDRDKFVIFLDVKHFSPEDLTVKVQDDFVEIHGKHNERQDDHGYISREFHRRYRLPSNVDQSALSCSLSADGMLTFCGPKIQTGLDATHAERAIPVSREEKPTSAPSS
- stoichiometry N [4]: ~30 monomers

B6: human small heat shock protein HspB5 (alphaB-crystallin), wild type (natural protein, UniProt P02511 1-175, looked up)
chain: MDIAIHHPWIRRPFFPFHSPSRLFDQFFGEHLLESDLFPTSTSLSPFYLRPPSFLRAPSWFDTGLSEMRLEKDRFSVNLDVKHFSPEELKVKVLGDVIEVHGKHEERQDEHGFISREFHRKYRIPADVDPLTITSSLSSDGVLTVNGPRKQVSGPERTIPITREEKPAVTAAPKK
notes: HspB5 (alphaB-crystallin), human; UniProt P02511; Expressed from pET23b; The printed monomeric mass (20.2 kDa) fits the whole protein; also called αB-crystallin; wild type HspB5; source: E. coli BL21(DE3)pLysS, purified (ammonium sulfate fractionation, HiTrap Q HP, Superdex-200 SEC)
- stoichiometry N [4]: ~27 monomers

B7: R22A mutant of human HspB5 (natural protein, UniProt P02511 1-175, looked up)
chain: MDIAIHHPWIRRPFFPFHSPSALFDQFFGEHLLESDLFPTSTSLSPFYLRPPSFLRAPSWFDTGLSEMRLEKDRFSVNLDVKHFSPEELKVKVLGDVIEVHGKHEERQDEHGFISREFHRKYRIPADVDPLTITSSLSSDGVLTVNGPRKQVSGPERTIPITREEKPAVTAAPKK
notes: HspB5 (alphaB-crystallin), human; UniProt P02511; Arg22 of the RLFDQxFG motif replaced by Ala; Expressed from pET23b; also called R22A HspB5; source: E. coli BL21(DE3)pLysS, purified (ammonium sulfate fractionation, HiTrap Q HP, Superdex-200 SEC)
- stoichiometry N [4]: ~23 monomers

— article PMC6073470 (International Journal of Molecular Sciences, 2018)
